{
  "source": "patent US20110081662A1",
  "about": "“SCREENING METHODS FOR BONE MORPHOGENETIC MIMETICS” (THRASOS THERAPEUTICS, INC., priority 2000, published 2011)",
  "molecules": {"B1": {"name": "BMP-7: homodimeric glycoprotein of the TGF-β superfamily; unlabeled standard (protein)", "chain": "STGSKQRSQNRSKTPKNQEALRMANVAENSSSDQRQACKKHELYVSFRDLGWQDWIIAPEGYAAYYCEGECAFPLNSYMNATNHAIVQTLVHFINPETVPKPCCAPTQLNAISVLYFDDSSNVILKKYRNMVVRACGCH"}},
  "key": {"[1]": {"target": "T1, ECD of daf-4 receptor (Caenorhabditis elegans, UniProt P50488)", "T1 construct": "1 includes additional portions on the N and C terminus; made in house; host or cells: transfected DHFR(-) CHO cell line PJ511.9.8, purified from conditioned medium", "T1 sequence (P50488 with tags, fused parts or gaps)": "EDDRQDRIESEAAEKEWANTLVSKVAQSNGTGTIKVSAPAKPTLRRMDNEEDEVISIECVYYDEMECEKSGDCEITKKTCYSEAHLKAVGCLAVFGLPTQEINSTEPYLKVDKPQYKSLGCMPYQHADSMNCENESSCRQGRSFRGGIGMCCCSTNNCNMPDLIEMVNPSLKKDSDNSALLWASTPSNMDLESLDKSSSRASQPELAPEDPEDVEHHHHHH", "assay": "Type II receptor-based HTS rapid solid-phase assay", "assay_type": "binding, C. elegans", "details": "ECD immobilized on PVDF membrane, 18 h, room temperature", "from_the_text": "Preparation of type II Receptor ECD: Highly purified extracellular domain (ECD) of the type II receptor daf-4 was used in this assay. The ECD of the daf-4 receptor was cloned and vectors (pCMV5 expression vectors, daf-4 sequence including the mammalian consensus start site and the hexa-histidine sequence tag) are constructed for the expression of this molecule in mammalian cells. In this construct, the ECD has been linked to a hexa-Histadine sequence tag for subsequent purification and detection. The transfected DHFR(−) CHO cell line PJ511.9.8 has been used for the daf-4 expression as outlined below. This cloning method can also be utilized with other bone morphogenetic proteins.\nPurification of daf-4 ECD: A purification protocol to process large volumes of conditioned media (3.5 L/week) was developed. The procedure involves initial isolation of daf-4 ECD by using Talon (Pharmacia Tech.) Immobilized metal affinity column. As daf-4 ECD protein is linked to a hexa-His sequence, the protein is bound to the metal affinity column and is subsequently eluted by imidazoic ([…]) containing buffer. […] The purified preparation was analyzed by reversed phase HPLC. […]\nHTS assay procedure: BMP-7 binding activity was determined by a rapid solid-phase assay using ^125I-labeled BMP-7 as ligand and highly purified ECD of daf-4 as type II receptor. […]"}, "[2]": {"target": "T2, daf-4 ECD (Caenorhabditis elegans, UniProt P50488)", "T2 construct": "1 includes additional portions on the N and C terminus; made in house; host or cells: transfected DHFR(-) CHO cell line PJ511.9.8, purified from conditioned medium", "T2 sequence (P50488 with tags, fused parts or gaps)": "T1 sequence (P50488 with tags, fused parts or gaps)", "assay": "BMP binding to purified daf-4 ECD (ligand blot, Scatchard analysis)", "set-up": "species or system C. elegans", "source_text": "A novel ligand-blot technique was developed to evaluate the binding of BMP-7 to the purified daf-4 ECD."}, "[3]": {"system": "bone formation", "assay": "Subcutaneous implantation assay in rodents (bone formation)", "assay_type": "in vivo", "details": "rat, subcutaneous implant, day 14, data not shown", "protocol": "Subcutaneous implantation assay in rodents: This assay is based on the ability of BMP-7 to induce bone formation in the rat. […] Briefly, 1.2 mg of bovine bone matrix (collagen carrier) was added to BMP-7 or test peptide or small molecule or BMP-7 and test peptide in 200 μl of 50% acetonitrile, […]. A minimum of 6 animals per group were used. The day of implantation is designated as day 0 of the assay. Implants were removed on day 14 for evaluation. Bone-forming activity in the implants was monitored by the calcium content essentially as described by Reddi, A. H. & Huggins, C. B. (1972) PNAS USA 69, 1601-1605. For histology, implants were fixed in Bouin's solution, embedded in JB4 plastic medium, cut into 1 um sections, and stained by toluidine blue. […] (Data not shown)"}},
  "data": [
    {"molecule": "B1", "values": [
      {"measurement": "inhibition of 125I-labeled BMP-7 binding to the ECD of daf-4 receptor", "setting": "[1]", "result": 78, "unit": "%"},
      {"measurement": "binding to extracellular domain of daf-4", "setting": "[2]", "result": "readily binds"},
      {"measurement": "bone formation in implants", "setting": "[3]", "result": "induced bone formation"}
    ]}
  ]
}
